Molecular target: 4-1BB (Acro) (Homo sapiens (assumed)) (UniProt Q07011)
Test: SPR

Urelumab, variable domains in human IgG1 expression vectors (antibody)
Kd: 8 nM
